# Experimental data: patent US20170307612
# Tests used:
# [1] = test system: hemagglutinin of highly pathogenic influenza virus H5N6
# [2] = test system: hemagglutinin of lowly pathogenic influenza virus H9N2_02
# [3] = test system: hemagglutinin of lowly pathogenic influenza virus H9N2_01
# [4] = test system: hemagglutinin of lowly pathogenic influenza virus H2N1
# [5] = test system: hemagglutinin of lowly pathogenic influenza virus H3N8
# [6] = test system: hemagglutinin of lowly pathogenic influenza virus H3N2 (Experimental Example 4)
# [7] = test system: hemagglutinin of highly pathogenic influenza virus H5N1_01
# [8] = test system: hemagglutinin of lowly pathogenic influenza virus H9N2 (Experimental Example 4)
# [9] = test system: hemagglutinin of lowly pathogenic influenza virus H1N1 (Experimental Example 4)
# [10] = test system: hemagglutinin of lowly pathogenic influenza virus H7N9
# [11] = test system: hemagglutinin of highly pathogenic influenza virus H5N1_02
# [12] = test system: hemagglutinin of lowly pathogenic influenza virus H2N4
# [13] = test system: hemagglutinin of lowly pathogenic influenza virus H1N1_01
# [14] = test system: hemagglutinin of lowly pathogenic influenza virus H7N7
# [15] = test system: hemagglutinin of lowly pathogenic influenza virus H1N1_02
substance,measurement,setting,value
furin,"fluorescence intensity of probe of Preparation Example 1, furin only, pH 5.5",[1],2420
same,"fluorescence intensity of probe of Preparation Example 2, furin only, pH 5.5",[1],2720
same,"fluorescence intensity of probe of Preparation Example 3, furin only, pH 5.5",[1],2250
same,"fluorescence intensity of probe of Preparation Example 1, furin only, pH 5.5",[2],418
same,"fluorescence intensity of probe of Preparation Example 2, furin only, pH 5.5",[2],571
same,"fluorescence intensity of probe of Preparation Example 3, furin only, pH 5.5",[2],306
same,"fluorescence intensity of probe of Preparation Example 1, furin only, pH 5.5",[3],353
same,"fluorescence intensity of probe of Preparation Example 2, furin only, pH 5.5",[3],443
same,"fluorescence intensity of probe of Preparation Example 3, furin only, pH 5.5",[3],461
same,"fluorescence intensity of probe of Preparation Example 1, furin only, pH 5.5",[4],371
same,"fluorescence intensity of probe of Preparation Example 2, furin only, pH 5.5",[4],333
same,"fluorescence intensity of probe of Preparation Example 3, furin only, pH 5.5",[4],569
same,"fluorescence intensity of probe of Preparation Example 1, furin only, pH 5.5",[5],399
same,"fluorescence intensity of probe of Preparation Example 2, furin only, pH 5.5",[5],442
same,"fluorescence intensity of probe of Preparation Example 3, furin only, pH 5.5",[5],313
same,"fluorescence intensity of probe of Example 4-1, furin only, pH 5.5",[6],"4,697"
same,"fluorescence intensity of probe of Example 4-2, furin only, pH 5.5",[6],"4,953"
same,"fluorescence intensity of probe of Example 4-3, furin only, pH 5.5",[6],"1,731"
same,"fluorescence intensity of probe of Preparation Example 1, furin only, pH 5.5",[7],2840
same,"fluorescence intensity of probe of Preparation Example 2, furin only, pH 5.5",[7],4680
same,"fluorescence intensity of probe of Preparation Example 3, furin only, pH 5.5",[7],4330
same,"fluorescence intensity of probe of Example 4-1, furin only, pH 5.5",[8],"3,134"
same,"fluorescence intensity of probe of Example 4-2, furin only, pH 5.5",[8],"3,703"
same,"fluorescence intensity of probe of Example 4-3, furin only, pH 5.5",[8],"4,218"
same,"fluorescence intensity of probe of Example 4-1, furin only, pH 5.5",[9],"3,721"
same,"fluorescence intensity of probe of Example 4-2, furin only, pH 5.5",[9],"3,955"
same,"fluorescence intensity of probe of Example 4-3, furin only, pH 5.5",[9],"4,344"
same,"fluorescence intensity of probe of Preparation Example 1, furin only, pH 5.5",[10],545
same,"fluorescence intensity of probe of Preparation Example 2, furin only, pH 5.5",[10],461
same,"fluorescence intensity of probe of Preparation Example 3, furin only, pH 5.5",[10],528
same,"fluorescence intensity of probe of Preparation Example 1, furin only, pH 5.5",[11],2130
same,"fluorescence intensity of probe of Preparation Example 2, furin only, pH 5.5",[11],4840
same,"fluorescence intensity of probe of Preparation Example 3, furin only, pH 5.5",[11],5000
same,"fluorescence intensity of probe of Preparation Example 1, furin only, pH 5.5",[12],426
same,"fluorescence intensity of probe of Preparation Example 2, furin only, pH 5.5",[12],347
same,"fluorescence intensity of probe of Preparation Example 3, furin only, pH 5.5",[12],477
same,"fluorescence intensity of probe of Preparation Example 1, furin only, pH 5.5",[13],492
same,"fluorescence intensity of probe of Preparation Example 2, furin only, pH 5.5",[13],374
same,"fluorescence intensity of probe of Preparation Example 3, furin only, pH 5.5",[13],327
same,"fluorescence intensity of probe of Preparation Example 1, furin only, pH 5.5",[14],432
same,"fluorescence intensity of probe of Preparation Example 2, furin only, pH 5.5",[14],401
same,"fluorescence intensity of probe of Preparation Example 3, furin only, pH 5.5",[14],575
same,"fluorescence intensity of probe of Preparation Example 1, furin only, pH 5.5",[15],594
same,"fluorescence intensity of probe of Preparation Example 2, furin only, pH 5.5",[15],364
same,"fluorescence intensity of probe of Preparation Example 3, furin only, pH 5.5",[15],490
trypsin,"fluorescence intensity of probe of Preparation Example 1, trypsin only, pH 5.5",[1],2740
same,"fluorescence intensity of probe of Preparation Example 2, trypsin only, pH 5.5",[1],2760
same,"fluorescence intensity of probe of Preparation Example 3, trypsin only, pH 5.5",[1],2030
same,"fluorescence intensity of probe of Preparation Example 1, trypsin only, pH 5.5",[2],3280
same,"fluorescence intensity of probe of Preparation Example 2, trypsin only, pH 5.5",[2],4720
same,"fluorescence intensity of probe of Preparation Example 3, trypsin only, pH 5.5",[2],3730
same,"fluorescence intensity of probe of Preparation Example 1, trypsin only, pH 5.5",[3],3750
same,"fluorescence intensity of probe of Preparation Example 2, trypsin only, pH 5.5",[3],4580
same,"fluorescence intensity of probe of Preparation Example 3, trypsin only, pH 5.5",[3],3510
same,"fluorescence intensity of probe of Preparation Example 1, trypsin only, pH 5.5",[4],2210
same,"fluorescence intensity of probe of Preparation Example 2, trypsin only, pH 5.5",[4],2120
same,"fluorescence intensity of probe of Preparation Example 3, trypsin only, pH 5.5",[4],2060
same,"fluorescence intensity of probe of Preparation Example 1, trypsin only, pH 5.5",[5],3600
same,"fluorescence intensity of probe of Preparation Example 2, trypsin only, pH 5.5",[5],4070
same,"fluorescence intensity of probe of Preparation Example 3, trypsin only, pH 5.5",[5],3400
same,"fluorescence intensity of probe of Example 4-1, trypsin only, pH 5.5",[6],"19,192"
same,"fluorescence intensity of probe of Example 4-2, trypsin only, pH 5.5",[6],"16,812"
same,"fluorescence intensity of probe of Example 4-3, trypsin only, pH 5.5",[6],"16,362"
same,"fluorescence intensity of probe of Preparation Example 1, trypsin only, pH 5.5",[7],2950
same,"fluorescence intensity of probe of Preparation Example 2, trypsin only, pH 5.5",[7],4000
same,"fluorescence intensity of probe of Preparation Example 3, trypsin only, pH 5.5",[7],3410
same,"fluorescence intensity of probe of Example 4-1, trypsin only, pH 5.5",[8],"18,345"
same,"fluorescence intensity of probe of Example 4-2, trypsin only, pH 5.5",[8],"18,950"
same,"fluorescence intensity of probe of Example 4-3, trypsin only, pH 5.5",[8],"18,035"
same,"fluorescence intensity of probe of Example 4-1, trypsin only, pH 5.5",[9],"17,689"
same,"fluorescence intensity of probe of Example 4-2, trypsin only, pH 5.5",[9],"17,581"
same,"fluorescence intensity of probe of Example 4-3, trypsin only, pH 5.5",[9],"15,674"
same,"fluorescence intensity of probe of Preparation Example 1, trypsin only, pH 5.5",[10],3990
same,"fluorescence intensity of probe of Preparation Example 2, trypsin only, pH 5.5",[10],4600
same,"fluorescence intensity of probe of Preparation Example 3, trypsin only, pH 5.5",[10],3250
same,"fluorescence intensity of probe of Preparation Example 1, trypsin only, pH 5.5",[11],2960
same,"fluorescence intensity of probe of Preparation Example 2, trypsin only, pH 5.5",[11],4540
same,"fluorescence intensity of probe of Preparation Example 3, trypsin only, pH 5.5",[11],4360
same,"fluorescence intensity of probe of Preparation Example 1, trypsin only, pH 5.5",[12],4020
same,"fluorescence intensity of probe of Preparation Example 2, trypsin only, pH 5.5",[12],3090
same,"fluorescence intensity of probe of Preparation Example 3, trypsin only, pH 5.5",[12],3460
same,"fluorescence intensity of probe of Preparation Example 1, trypsin only, pH 5.5",[13],3350
same,"fluorescence intensity of probe of Preparation Example 2, trypsin only, pH 5.5",[13],4020
same,"fluorescence intensity of probe of Preparation Example 3, trypsin only, pH 5.5",[13],3720
same,"fluorescence intensity of probe of Preparation Example 1, trypsin only, pH 5.5",[14],2600
same,"fluorescence intensity of probe of Preparation Example 2, trypsin only, pH 5.5",[14],2070
same,"fluorescence intensity of probe of Preparation Example 3, trypsin only, pH 5.5",[14],2510
same,"fluorescence intensity of probe of Preparation Example 1, trypsin only, pH 5.5",[15],4550
same,"fluorescence intensity of probe of Preparation Example 2, trypsin only, pH 5.5",[15],4720
same,"fluorescence intensity of probe of Preparation Example 3, trypsin only, pH 5.5",[15],3150
